Experimental data as given in publication PMC3790952 (Chembiochem, 2013).

Tests used:
[1] = substrate: CC(C)=CCC/C(C)=C/CC/C(C)=C/CC/C(C)=C/COP(=O)(O)OP(=O)(O)O; experiment: purified protein; type: biochemical, Streptomyces sp.; details: 10 mM MgCl2, 30 °C, GGDP 10-200 μM
[2] = target: the molecule itself; experiment: SEC

B1: DtcycB (enzyme, Streptomyces sp. SANK 60404, UniProt M1VDX3 1-343, looked up)
chain: MDLPPALLSFYCPIASEVSPEHEAVAQEMYAWIHAMSLTSDNRQAKMLAQAGAGFNSYFTPRARGELARALSKYNVCAWIANGMVQEIRDPGTFGAMAARWARIMEEPATCPADGIPMDFALADAFSHIRRTLSPVKWQHFSAAQSHWMHGLAWENCLHQVKGLTVHDYLSFRYVMSGCFAAAAFAYAVPERHPSAEEWAHPKVRAAADAAMMVDALDNDRYSYLKESLTEADKKTIFAALRHENPALGREEVIVRGVQLRDRILTLYLTLRGELLCDASEGLRSYLTGLDLIIAGNLVFCADMGLRYGLPEGSVRTDAEPLDRTVAPPGIGAIDHWWAQAGA
- Km [1]: 42.1 ± 7.3 µM
- kcat [1]: 0.0217 s⁻¹
- stoichiometry N [2]: 2

B2: DtcycA (enzyme, Streptomyces sp. SANK 60404, UniProt M1V9Q0 1-371, looked up)
chain: MTDPAVTPLAFSIPQLYCPFPTAIHPEVDTLTRAGMDFMTHHGFCNTEADRLVVANIDAGAIVARWYPNPDFPVDRLQMVTDFLYLYFLIDDLRFEVINSDTGLAGPIALFAQHLDLWEYPQAHRREELDLFHQAIHDLASRMAELTTPTKAARMRRSINGWFLALLREIALFNDDHAVMAEEYLPIRVVTVASRLMIDVNGFICPAEVPGDEWYSLKVQAAAEAAMSVCLYDNELYSAGKEQWLKSRATAHDRRPRNLVALIQAQTGGSTEHALQEVAEYRNRTVCLYLNLRSQLEKTASPALLAYLSVLDGVISGNLDAHATSSRYHNPDGHHPHAIAFTPLRTTDECSARAHTPIAPPIAWWWEQLDQ
- Km [1]: 93.7 ± 8.4 µM
- kcat [1]: 0.0467 s⁻¹
- stoichiometry N [2]: 2
